Data taken from the DeepSol protein solubility set.

Assay: soluble on expression in E. coli; label from the status in PepcDB or PDB records
For “VNSVQIKNATAIVTGASSGIGLAFASLLAQKGYNLLLIARNINKLNDLAKTLSTQYDTQCNVLSIDLSEENASKKVLEYIITNNLNISVLINNAGFSGNYKFLEADWSQLSKELNVMSIAVTELCYLIAPLMEKNSWGRIINVSSGAAYLPPTQSLLYTGLKSYVLNFSQSLDMELKPKGINVTALCPGFTRSEFHNTMGTNKQVSKVPNFLWQA”, the “soluble on expression in E. coli” value was “not soluble”.
In the case of “SLQKFNQIHSLFEHLPANYGEFSDFEQKIATLAQEMKVDLSLYEIDHLSIRVNTEDKAKSWLTTLLNYGKILSNNLVNGRAIYLIELEQPLLFMGQRVFIIELPFPKNKHYPVESWEHIEFVIPFLPNESSIEWVERVQQQFLWNQSGNLTIKVDEPKVDGEQLPNPSIAVSFADKSQNHVCIKVHPFNIKNIIKVSEG”, the “soluble on expression in E. coli” value was “soluble”.
With “MIDQLQVGPNPLVGLLDDVHMLEVQRDSGVANILNSPEIKKRHYNATRKRVNRRDSTIVEPEAKSRKMDENWTGVGTESESTDCVETTETRFTWFKAQTKHPGLAKSLQSEVTKVGLSIVDLQHCTLPCKSINYNFHFYSFKGLSREDSKKFEEMIDQNFVNNFCAENLLNKEDKNFFYYDLGYKQVVSLSMLATYFKIKNEQPLLHPLKMLLNKQLLKKAFEDADTHVELKKYLSKNGYSKLVQWMEEMTQ” the “soluble on expression in E. coli” value was “not soluble”.
For “MSLKIVIIGASFAGISAAIASRKKYPQAEISLIDKQATVGYLSGGLSAYFNHTINELHEARYITEEELRRQKIQLLLNREVVAMDVENQLIAWTRKEEQQWYSYDKLILATGASQFSTQIRGSQTEKLLKYKFLSGALAAVPLLENSQTVAVIGAGPIGMEAIDFLVKMKKTVHVFESLENLLPKYFDKEMVAEVQKSLEKQAVIFHFEETVLGIEETANGIVLETSEQEISCDSGIFALNLHPQLAYLDKKIQRNLDQTIAVDAYLQTSVPNVFAIGDCISVMNEPVAETFYAPLVNNAVRTGLVVANNLEEKTHRFIGSLRTMGTKVGDYYLASTGLTETEGLFFPQTLASIIVRQPAPPLQHGTEILGKLIYDKVTQRVLGAQLCSKNNCLEKINTLALSIQTGQTLTDLLQKDYFYQPSLTNIYDITNLMGASAYWRENDEGHHHHHH”, the “soluble on expression in E. coli” value was “soluble”.
For “MDELRELLKAEQQAIKIYKEVLKKAKEGDEQELARLIQEIVKAEKQAVKVYKEAAEKARNPEKRQVIDKILEDEEKHIEWLKAASKQGNAEQFASLVQQILQDEQRHVEEIEKKN”, the “soluble on expression in E. coli” value was “soluble”.
With “LNAAMNLKREFVHRVQRFVVNPIGRQLPMTMLETIGRKTGQPRRTAVGGRVVDNQFWMVSEHGEHSDYVYNIKANPAVRVRIGGRWRSGTAYLLPDDDPRQRLRGLPRLNSAGVRAMGTDLLTIRVDLD” the “soluble on expression in E. coli” value was “soluble”.
With “MPGFNYGGDQDEVYTPYRRVLVTGATGLLGRAVYKEFKNNDWDALGCGYNRARPFFLKCNLLDEDAVRGVIQSFQPHVIVHCAAERRPDVVERHTEAAMNLNVHACATLAKEAGGSFLIYISTDYVFDGRNPPYGENDAPNPLNLYGKSKLEGEREILRHCPGAAVLRVPILFGEVEKVEESAVTVLFERVQEGAESCTIDHCQQRFPTYTNDVARVCRNMAERALQDQSLRGIFHYSAKEQMTKYEMTCAIADAFNLPSSHLIPMTEQPAGAGAQRPQNAQLECSRLELLGLSVESTPFKNAIRDSLWPFQHDKRWRQTVFH” the “soluble on expression in E. coli” value was “soluble”.
For “MSLEISASIIDISENALEQLGVDWRLHNSRFDLQTGNGTNTMLNNPGSLDSVATTAGAAAAIAATPAGGVLSAVIGGGSRYLMARISALQQTDQARITANPKVATLDNTEAVMDNRQNFYVPVAGYQSADLYAISAGVSLRVLPMVVMDGGTVRIRMNVHIEDGQITSQQVGNLPITSQSEIDTQALINEGDSLLIAGYSVEQQSKSVDAVPGLSKIPLVGALFRTDQTTGKRFQRMFLVTPRVITEGHHHHHH”, the “soluble on expression in E. coli” value was “not soluble”.
With “MVALRGKDATSFLARPDPGRPIVLLYGPDAGLVRERADALIAASLDDPKDPFALVRLDGDELSAEPSRLVDEALAIPMFGGRRAIRVRAGSRSFVAGVEALIASPPRECRIVIEAGDIKPDNALRKACEKAATGAVAIGCYPDAEADIARLIDDELRGSNLQIAKDARAVLTTLLGGDRQASRNELRKLALYAHGKGEVTLDDVITCVSDASDLKLDAIVDAAFSGKPVVVETEFAKAMVAGTYPGQIILAAQRHAAFLHKTSLVVEGGTPAAVVLDSGFPRLHFSRKAAAETALRNLSTTRLAQIIEQLASAALETRRQATLGAAIAQRTLLSIAVSARRRSLEHHHHHH” the “soluble on expression in E. coli” value was “soluble”.
